In US20120201746A1:

Target: Neonatal Fc receptor (FcRn) on CHO-FcRnGPI cells
Assay: flow cytometry on CHO-FcRnGPI cells, pH 6.4

An EC50 of 0.0504 µM was found for Control mAb (antibody) in this work.
